Read-outs that look alike come from different tables or passages of the source.
How the values were obtained:
Test in all cases: ELISA
[1] = molecular target: T1, endogenous RoxP secreted by C. acnes strain ATCC 6919 (Cutibacterium acnes ATCC 6919 …, UniProt Q6A6F6, strain)
[2] = molecular target: T2, endogenous RoxP secreted by C. acnes strain KPA171202 (Cutibacterium acnes KPA171202, UniProt Q6A6F6)
RoxP_11-tagless = molecular target: T3, RoxP_11-tagless (Cutibacterium porci (WP_154564006.1))
T3 chain: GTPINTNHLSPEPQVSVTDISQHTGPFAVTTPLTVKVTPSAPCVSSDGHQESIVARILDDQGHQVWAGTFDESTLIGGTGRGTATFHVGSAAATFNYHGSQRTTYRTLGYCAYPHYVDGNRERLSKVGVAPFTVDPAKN

8His-TEV-RoxP_1 = molecular target: T4, 8His-TEV-RoxP_1 (Cutibacterium acnes KPA171202)
T4 chain: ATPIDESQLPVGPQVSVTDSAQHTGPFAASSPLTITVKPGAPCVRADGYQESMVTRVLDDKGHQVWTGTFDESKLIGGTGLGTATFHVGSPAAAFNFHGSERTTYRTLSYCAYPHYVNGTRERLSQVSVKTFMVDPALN

[3] = molecular target: T1, endogenous RoxP secreted by C. acnes …; remark: listed apart in the source
[4] = molecular target: T2, endogenous RoxP secreted by C. acnes …; remark: listed apart in the source

B1: 4D8H1 (antibody, V domains shown)
VH: EVKLLESGGGLVQPGGSLKLSCAASGFDFSRYWMSWVRQAPGKGLEWIGEINPDSSTINYTPSLKDKFIISRDNAKNTLYLQMSKVRSEDTALYYCARYYSRFAYWGQGTLVTVSA
VL: QAVVTQESALTTSPGETVTLTCRSSTGAVTTRNYANWVQEKPDHLFTGLIGDTNNRAPGVPARFSGSLIGDKAALTITGAQTEDEAIYFCALWYSNHWVFGGGTKLTVL
B1: binds [1]; binds [2]; no binding (tested: 155 ng/mL) (RoxP_11-tagless). B1: binds (8His-TEV-RoxP_1).

B2: 2H2F3 (antibody, V domains shown)
VH: QVQLQQSGAELVRPGVSVKISCKGSGYTFTDYAMHWVKQSHAKSLEWIGIISTYYGNASYNQKFKGKATMTVDKSSSTAYMELARLTSEDSAIYYCARVPYYGSSYAMDYWGQGTSVTVSS
VL: DVLMTQTPLSLPVSLGDQASISCRSSQNIVHSDGNTYLEWYLQKPGQSPKLLIYKVSNRFSGVPDRFSGSGSGTDFTLKISRVEAEDLGVYYCFQGSHVPWTFGGGTKLEIK
B2: binds (8His-TEV-RoxP_1).

B3: 5F3D11 (antibody, V domains shown)
VH: not shown
VL: DVVMTQTPLSLPVSLGDQASISCRSSQSLVHSNGNTYLHWYLQKPGQSPKLLIYKVSNRFSGVPDRFSGSGSGTDFTLKISRVEAEDLGVYFCSQSTHVPPTFGGGTKLEIK
B3: binds (8His-TEV-RoxP_1).

B4: biotinylated-2H2F3 (antibody, V domains shown)
VH: QVQLQQSGAELVRPGVSVKISCKGSGYTFTDYAMHWVKQSHAKSLEWIGIISTYYGNASYNQKFKGKATMTVDKSSSTAYMELARLTSEDSAIYYCARVPYYGSSYAMDYWGQGTSVTVSS
VL: DVLMTQTPLSLPVSLGDQASISCRSSQNIVHSDGNTYLEWYLQKPGQSPKLLIYKVSNRFSGVPDRFSGSGSGTDFTLKISRVEAEDLGVYYCFQGSHVPWTFGGGTKLEIK
B4: binds [3]; binds [4].

B5: 3E10E3 (antibody, V domains shown)
VH: QVTLKESGPGILQPSQTLSLTCSFSGFSLSTYGIGVGWIRQPSGKGLEWLAHIWWNDNKYYNTALKSRLTISKDTSNNQVFLKIASVDTADTATYYCARSLPYFDYWGQGTTLTVSS
VL: DIQMTQSPASLSASVGETVTITCRASENIYSYLAWYQQKQGKSPQFLVYNAKTLAEGVPSRFSGSGSGTQFSLKINSLQPEDFGSYYCQHHYGIPRTFGGGTKLEIK
B5: binds (RoxP_11-tagless); binds (8His-TEV-RoxP_1).

From publication doi:10.1101/2024.09.18.613542 (bioRxiv, 2024)
